The source of these data is US20260285998 (published 2026).

The target in assay [1] is T1, human BCMA R27P (human).
T1 chain: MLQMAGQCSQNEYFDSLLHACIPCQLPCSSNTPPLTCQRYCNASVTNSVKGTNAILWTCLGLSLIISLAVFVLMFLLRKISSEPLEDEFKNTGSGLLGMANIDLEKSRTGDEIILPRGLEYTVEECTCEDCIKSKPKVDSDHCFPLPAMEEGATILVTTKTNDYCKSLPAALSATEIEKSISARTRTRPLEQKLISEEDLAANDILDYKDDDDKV
Put plainly: FACS. In general terms: Flow cytometry measures light scatter and fluorescence of single cells or particles in a stream.

Assay [2] deals with T2, human BCMA S30del (human).
T2 chain: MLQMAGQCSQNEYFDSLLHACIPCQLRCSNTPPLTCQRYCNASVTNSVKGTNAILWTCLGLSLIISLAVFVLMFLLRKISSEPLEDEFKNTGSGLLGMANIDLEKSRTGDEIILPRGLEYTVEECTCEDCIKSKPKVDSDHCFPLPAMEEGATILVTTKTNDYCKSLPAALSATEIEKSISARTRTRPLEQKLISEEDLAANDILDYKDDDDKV
Put plainly: FACS.

The target in assay [3] is T3, human BCMA (cell surface) (human).
T3 chain: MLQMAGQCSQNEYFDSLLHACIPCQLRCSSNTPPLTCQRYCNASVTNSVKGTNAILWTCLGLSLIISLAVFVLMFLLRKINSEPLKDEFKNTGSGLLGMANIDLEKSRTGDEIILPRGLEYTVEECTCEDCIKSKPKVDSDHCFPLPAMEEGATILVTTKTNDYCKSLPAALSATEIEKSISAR
Put plainly: FACS.

The target of assay [4] is T4, human BCMA-Fc (human).
T4 chain: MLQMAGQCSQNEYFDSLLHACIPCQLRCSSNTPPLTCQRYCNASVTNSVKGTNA
Put plainly: SPR, 25C. For orientation: Surface plasmon resonance follows binding to a sensor surface in real time, without labels.

Assay [5] addresses cynomolgus BCMA-Fc (cynomolgus). In words: SPR, 25C.

Broadly, the EC50 is the concentration needed to bring the measured effect to its halfway point. A word on the Kd: it is the constant that tells how readily two partners part at equilibrium. Low values mean higher affinity, high ones lower affinity.

Sequence of cynomolgus BCMA-Fc (cynomolgus) (chain, as listed by the source): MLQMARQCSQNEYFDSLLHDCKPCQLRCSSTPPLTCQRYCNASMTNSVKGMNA

B1: Teclistamab BCMA arm (antibody, V domains shown)
VH: QLQLQESGPGLVKPSETLSLTCTVSGGSISSGSYFWGWIRQPPGKGLEWIGSIYYSGITYYNPSLKSRVTISVDTSKNQFSLKLSSVTAADTAVYYCARHDGAVAGLFDYWGQGTLVTVSS
VL: SYVLTQPPSVSVAPGQTARITCGGNNIGSKSVHWYQQPPGQAPVVVVYDDSDRPSGIPERFSGSNSGNTATLTISRVEAGDEAVYYCQVWDSSSDHVVFGGGTKLTVLG
Regarding B1, the binding result in assay [1] and in assay [2] was “no binding” each time.

B2: P1AG7397 BCMA arm (antibody, V domains shown)
VH: EVQLLESGGGLVQPGGSLRLSCAASGFTFSNAWMDWVRQAPGKGLEWVSQITAKSNNYATYYADSVKGRFTISRDNSKNTLYLQMNSLRAEDTAVYYCTDDGYHWGQGTLVTVSS
VL: DIQMTQSPSSLSASVGDRVTITCRASEDIRNGLAWYQQKPGKAPKLLIYNANSLHTGVPSRFSGSGSGTDFTLTISSLQPEDFATYYCEDTSKYPYTFGQGTKLEIK
As to B2, in assay [3], the EC50 is 23.7 nM.

B3: P1AG5067 (54_VH1a/VL1a_L1_pGL) (antibody, V domains shown)
VH: EVQLVESGGGLVKPGGSLRLSCAASGFTFSNAWMDWVRQAPGKGLEWVGQITAKSNNYATYYAAPVKGRFTISRDDSKNTLYLQMNSLKTEDTAVYYCTDDGYHWGQGTLVTVSS
VL: AIQMTQSPSSLSASVGDRVTITCRASEDIRNDLGWYQQKPGKAPKLLIYNANSLHTGVPSRFSGSGSGTDFTLTISSLQPEDFATYYCEDTSKYPYTFGQGTKLEIK
For B3, the Kd turned out to be 3.4 nM in assay [4] and 1.7 nM in assay [5].

B4: P1AG5028 (54_VH2a/VL1a) (antibody, V domains shown)
VH: EVQLLESGGGLVQPGGSLRLSCAASGFTFSNAWMDWVRQAPGKGLEWVSQITAKSNNYATYYADSVKGRFTISRDNSKNTLYLQMNSLRAEDTAVYYCTDDGYHWGQGTLVTVSS
VL: AIQMTQSPSSLSASVGDRVTITCRASEDIRNGLAWYQQKPGKAPKLLIYNANSLHTGVPSRFSGSGSGTDFTLTISSLQPEDFATYYCEDTSKYPYTFGQGTKLEIK
For B4, the figures for the Kd in assay [4] and in assay [5] were 2.7 nM and 3.8 nM, respectively.

B5: P1AG5014 (54_VH1a_Y292D/VL1a_L1_pGL) (antibody, V domains shown)
VH: EVQLVESGGGLVKPGGSLRLSCAASGFTFSNAWMDWVRQAPGKGLEWVGQITAKSNNYATDYAAPVKGRFTISRDDSKNTLYLQMNSLKTEDTAVYYCTDDGYHWGQGTLVTVSS
VL: AIQMTQSPSSLSASVGDRVTITCRASEDIRNDLGWYQQKPGKAPKLLIYNANSLHTGVPSRFSGSGSGTDFTLTISSLQPEDFATYYCEDTSKYPYTFGQGTKLEIK
For B5, the dissociation constant Kd in assay [4] was 1.7 nM; in assay [5] it was 0.11 nM.

B6: P1AG5030 (54_VH1b/VL2a) (antibody, V domains shown)
VH: EVQLVESGGGLVKPGGSLRLSCAASGFTFSNAWMDWVRQAPGKGLEWIAQITAKSNNYATYYAAPVKGRFTISRDDSKNTLYLQMNSLKTEDTAVYYCTDDGYHWGQGTLVTVSS
VL: DIQMTQSPSSLSASVGDRVTITCRASEDIRNGLAWYQQKPGKAPKLLIYNANSLHTGVPSRFSGSGSGTDFTLTISSLQPEDFATYYCEDTSKYPYTFGQGTKLEIK
As to B6, the Kd in assay [4] was 1.3 nM; in assay [5] it was 2.2 nM.

B7: P1AG7422 BCMA arm (antibody, V domains shown)
VH: EVQLVESGGGLVKPGGSLRLSCAASGFTFSNAWMDWVRQAPGKGLEWIAQITAKSNNYATYYAAPVKGRFTISRDDSKNTLYLQMNSLKTEDTAVYYCTDDGYHWGQGTLVTVSS
VL: AIQMTQSPSSLSASVGDRVTITCRASEDIRNGLAWYQQKPGKAPKLLIYNANSLHTGVPSRFSGSGSGTDFTLTISSLQPEDFATYYCEDTSKYPYTFGQGTKLEIK
B7 showed a 50% effective concentration (EC50) in assay [3] of 10.8 nM.

B8: P1AG5065 (54_VH1a_Y292D/VL1a_T699S) (antibody, V domains shown)
VH: EVQLVESGGGLVKPGGSLRLSCAASGFTFSNAWMDWVRQAPGKGLEWVGQITAKSNNYATDYAAPVKGRFTISRDDSKNTLYLQMNSLKTEDTAVYYCTDDGYHWGQGTLVTVSS
VL: AIQMTQSPSSLSASVGDRVTITCRASEDIRNGLAWYQQKPGKAPKLLIYNANSLHSGVPSRFSGSGSGTDFTLTISSLQPEDFATYYCEDTSKYPYTFGQGTKLEIK
With B8, the Kd in assay [4] amounted to 2.6 nM; in assay [5], 6.4 nM.

B9: P1AH1062 (5D5 LM4) BCMA arm (antibody)
chain 1: not shown
chain 2: EIVLTQSPGTLSLSPGERATLSCKASQDIDDAINWYQQKPGQAPRLLIYDASLRATGIPDRFSGSGSGTDFTLTISRLEPEDFAVYYCQQSLRTPITFGQGTKLEIKRTVAAPSVFIFPPSDEQLKSGTASVVCLLNNFYPREAKVQWKVDNALQSGNSQESVTEQDSKDSTYSLSSTLTLSKADYEKHKVYACEVTHQGLSSPVTKSFNRGEC
In assay [3], B9 yielded a concentration for a half-maximal effect (EC50) of 103 nM.

B10: P1AG7409 BCMA arm (antibody, V domains shown)
VH: QVQLVQSGAEVKKPGASVKVSCKASGYTFTNYWMHWVRQAPGQGLEWMGIIHPNSGSTNYNEKFQGRVTMTRDTSTSTVYMELSSLRSEDTAVYYCARGIYDYPFAYWGQGTLVTVSS
VL: DIQMTQSPSSLSASVGDRVTITCRASESVSIHGTHLMHWYQQKPGKAPKLLIYAASNLESGVPSRFSGSGSGTDFTLTISSLQPEDFATYYCQQSIEDPYTFGGGTKVEIK
In the case of B10, the response in assay [3] was half-maximal at 21.6 nM (EC50).

B11: P1AG5043 (E04_VH1a/VL1d) (antibody, V domains shown)
VH: QVQLVQSGAEVKKPGASVKVSCKASGYTFTNYWMHWVRQAPGQGLEWMGIIHPNSGSTNYNEKFQGRVTMTRDTSTSTVYMELSSLRSEDTAVYYCARGIYDYPFAYWGQGTLVTVSS
VL: DIQMTQSPSSLSASVGDRVTITCRASESVSIHGTHLMHWYQQKPGKAPKLLIYAASNLQSGVPSRFSGSGSETDFTLTISSLQPEDFATYYCQQSIEDPYTFGGGTKVEIK
In the case of B11, the results for the Kd in assay [4] and in assay [5] were 2.6 nM and 14 nM, respectively.

B12: P1AG5059 (E04_VH1a/VL1g) (antibody, V domains shown)
VH: QVQLVQSGAEVKKPGASVKVSCKASGYTFTNYWMHWVRQAPGQGLEWMGIIHPNSGSTNYNEKFQGRVTMTRDTSTSTVYMELSSLRSEDTAVYYCARGIYDYPFAYWGQGTLVTVSS
VL: DIQMTQSPSSLSASVGDRVTITCRASESVSIHGTHLMHWYQQKPGKAPKLLIYAASNLESGVPSRFSGSGSGTDFTLTISSLQPEDFATYFCQQSIEDPYTFGGGTKVEIK
For B12, the values for the Kd in assay [4] and in assay [5] were 2.3 nM and 30 nM, respectively.

B13: P1AG7400 BCMA arm (antibody, V domains shown)
VH: QVQLVQSGAEVKKPGASVKVSCKASGYTFTNYWMHWVRQAPGQGLEWMGIIHPNSGSTNYNEKFQGRVTMTRDTSTSTVYMELSSLRSEDTAVYYCARGIYDYPFAYWGQGTLVTVSS
VL: DIQMTQSPSSLSASVGDRVTITCRASESVSIHGTHLMHWYQQKPGKAPKLLIYAASSLQSGVPSRFSGSGSETDFTLTISSLQPEDFATYYCQQSIEDPYTFGGGTKVEIK
As to B13, the EC50 in assay [3] was determined as 41.5 nM.

B14: P1AG5060 (E04_VH1b/VL1f) (antibody, V domains shown)
VH: QVQLVQSGAEVKKPGASVKVSCKASGYTFTNYWMHWVRQAPGQGLEWMGIIHPNSGSTNYNEKFQGRVTMTVDKSTSTVYMELSSLRSEDTAVYYCARGIYDYPFAYWGQGTLVTVSS
VL: DIQMTQSPSSLSASVGDRVTITCRASESVSIHGTHLMHWYQQKPGKAPKLLIYAASSLQSGVPSRFSGSGSETDFTLTISSLQPEDFATYYCQQSIEDPYTFGGGTKVEIK
B14: the Kd in assay [4] worked out at 3.2 nM; in assay [5], 14 nM.

B15: P1AG5026 (E04_VH1b/VL1a) (antibody, V domains shown)
VH: QVQLVQSGAEVKKPGASVKVSCKASGYTFTNYWMHWVRQAPGQGLEWMGIIHPNSGSTNYNEKFQGRVTMTVDKSTSTVYMELSSLRSEDTAVYYCARGIYDYPFAYWGQGTLVTVSS
VL: DIQMTQSPSSLSASVGDRVTITCRASESVSIHGTHLMHWYQQKPGKAPKLLIYAASNLESGVPSRFSGSGSGTDFTLTISSLQPEDFATYYCQQSIEDPYTFGGGTKVEIK
For B15, the equilibrium dissociation constant (Kd) in assay [4] was determined as 2.7 nM; in assay [5], 33 nM.

B16: P1AG5034 (E04_VH1b/VL1e) (antibody, V domains shown)
VH: QVQLVQSGAEVKKPGASVKVSCKASGYTFTNYWMHWVRQAPGQGLEWMGIIHPNSGSTNYNEKFQGRVTMTVDKSTSTVYMELSSLRSEDTAVYYCARGIYDYPFAYWGQGTLVTVSS
VL: DIQMTQSPSSLSASVGDRVTITCRASESVSIHGTHLMHWYQQKPGKAPKLLIYAASSLQSGVPSRFSGSGSGTDFTLTISSLQPEDFATYYCQQSIEDPYTFGGGTKVEIK
With B16, the Kd in assay [4] was 3.2 nM; in assay [5] it was 32 nM.

B17: P1AG5021 (E04_VH1b/VL1g) (antibody, V domains shown)
VH: QVQLVQSGAEVKKPGASVKVSCKASGYTFTNYWMHWVRQAPGQGLEWMGIIHPNSGSTNYNEKFQGRVTMTVDKSTSTVYMELSSLRSEDTAVYYCARGIYDYPFAYWGQGTLVTVSS
VL: DIQMTQSPSSLSASVGDRVTITCRASESVSIHGTHLMHWYQQKPGKAPKLLIYAASNLESGVPSRFSGSGSGTDFTLTISSLQPEDFATYFCQQSIEDPYTFGGGTKVEIK
Consider B17, for which the Kd is 2.8 nM in assay [4] and 35 nM in assay [5].
